T1: recombinant human OX40-Fc (human, UniProt P43489 29-214)
T1 construct: also called rh-OX40-Fc; human OX40 hFC (R & D systems)
T1 sequence: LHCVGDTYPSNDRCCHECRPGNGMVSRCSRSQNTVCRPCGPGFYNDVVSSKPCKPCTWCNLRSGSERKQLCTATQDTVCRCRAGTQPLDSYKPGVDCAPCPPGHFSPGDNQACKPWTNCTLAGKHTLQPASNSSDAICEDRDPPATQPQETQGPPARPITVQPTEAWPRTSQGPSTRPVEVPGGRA

B1: pgXX88-27 (VHH, not shown: small tags and cut ends)
VHH: EVQLVESGGGLVQPGGSVTLSCATSKDTFSRYHMGWFRQAAGKEREFVAAIANTGTTTDYADFVKGRFTISRDSAKNTVYLQMDSLKVEDTAMYYCVVGSQFMSYDYWGQGTQVTVSS
B2: pgXX88-16 (VHH, not shown: small tags and cut ends)
VHH: QVQLVESGGGLVQAGESLNLSCSASGSIRNNAVAWFRQGPGNQRLRVAAITNTGTTDYADSVQGRFSIARDNAENTVTLQMNSLKPEDTAIYYCKIYTLPVPISSHDDTWGQGTQVTVSS
B3: pgXX88-19 (VHH, not shown: small tags and cut ends)
VHH: EVQLVESGGGLVQAGGSLRLSCVATGRTRSSTYIMAWFRQAPGKERDFVAAISFIGGSPVYTDSVKGRFTISRVIAENTVHLQMNDLTPEDTALYYCAATDSGPLGPSGPSKYEYWGQGTQVTVSS
B4: pgXX88-5 (VHH, not shown: small tags and cut ends)
VHH: QVQLVESGGGLVQAGGSLRLSCAASGGTFSTYAMGWFRQAPGKEPQFVARITWSGYTLYTEPVQGRFAISRDNAKNTVYLQMNSLKPEDTAEYFCAADSSEFRDIPNRDSRANYRYWGQGTQVTVSS
B5: pgEG1 (VHH, not shown: small tags and cut ends)
VHH: QVQLVESGGGLVQPGGSLRLSCAASGIIFEAEAMGWVRQAPGKQRESVAFIGSGGNTNVGWSVKGRFTISRDNAKNTLYLQMNSLRPEDTAVYYCNTHPLRSWGQGTQVTVS
B6: pgEG6 (VHH, not shown: small tags and cut ends)
VHH: QVQLVESGGGLVQPGGSLRLSCVASGIIFEAEAMGWYRQAPGKQRESVAFIGSGGNTNVGWSVKGRFTISRDNAKNTVYLQMNSLKPEDTAVYYCNTHPLRSWGQGTQVTVSS
B7: pgEG12 (VHH, not shown: small tags and cut ends)
VHH: QVQLVESGGGLVQAGGSLSLSCTASRNIFSINVMSWYRQAPGKQREFVASITREDFPYYTDSVKGRFTVTRDIANNKVHLQMNSLKLEDTAVYYCNAYYRSDNYWGQGTQVTVSS
B8: pgDD40-HZ-58 (VHH, not shown: small tags and cut ends)
VHH: QVQLVESGGGLVQPGESLTLSCVTSGFVFSNHWMYWDRQAPGKGLEWVADINLGGEMTYYSNSVKGRFTISRDNAKNTVSLRMDNLKVEDTAVYFCAANQQTPPYGLGSREYDYDYWGQGTQVTVSS

Consider 8 molecules from patent publication US20250376535A1 (BEIJING STARMAB BIOMED TECHNOLOGY, published 2025).

T3 sequence (P25942 21-193 limits assumed): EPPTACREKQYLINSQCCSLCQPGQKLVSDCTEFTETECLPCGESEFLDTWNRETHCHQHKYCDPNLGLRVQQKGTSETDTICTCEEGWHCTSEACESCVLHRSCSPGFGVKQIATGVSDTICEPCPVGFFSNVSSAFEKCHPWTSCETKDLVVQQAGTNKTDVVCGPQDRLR

One assay has as its target T1, recombinant human OX40-Fc. The experiment in a line: ELISA, OX40-Fc coated, VHH at 0.064 nM.
Description: (§1) After four times washing with PBST, the plate was incubated with detecting antibody anti-his-HRP (1:4000 dilution) 100 μl per well for one hour with shaking at 60 rpm. The plate was developed with 100 μL of TMB per well in the dark and then stopped by 50 μL of stop solution per well. […] Data was analyzed using GraphPad Prisma 9.1.
As for B1, the OD450 turned out to be 0.115.

In the case of B2, the OD450 was found to be 0.447.

For B3, the OD450 turned out to be 0.282.

Take B4: the OD450 worked out at 0.057.

The next assay addresses T2, EGFR (recombinant human, BLI antigen) (human, UniProt P00533 25-645).
T2 construct: also called rh-EGFR; human EGFR
As to the kind of experiment: BLI (Octet) as in Example 1. In general terms: In BLI a coated tip is dipped into the sample, and binding shifts an interference pattern.
As a reminder, the Kd is the free concentration of one partner at which half of the binding sites on the other are occupied at equilibrium, for simple one-to-one binding. Broadly, the koff is the rate constant with which the complex falls apart. One may read the kon as a measure of how fast the partners come together. Turning to B5, the Kd amounted to 15.6 nM, the koff was 0.00243 s⁻¹ and the kon came out at 156000 M⁻¹ s⁻¹.

On to B6, for which the Kd is 27.9 nM, the dissociation rate constant (koff) is 0.0136 s⁻¹ and the kon was determined as 489000 M⁻¹ s⁻¹.

Turning to B7, the Kd turned out to be 12.5 nM, the koff stood at 0.00251 s⁻¹ and the kon worked out at 201000 M⁻¹ s⁻¹.

A further assay has as its target T3, Human CD40 antigen (recombinant, BLI) (human, UniProt P25942 21-193).
T3 construct: also called rh-CD40
The experiment in a line: BLI, VHH-His on anti-His tips, human CD40 in solution.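 Further: kinetics measured at 30 °C in PBS pH 7.2, association tracked for 200 s, then dissociation followed in PBS lacking CD40.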
Description: Bio-Layer Interferometry (BLI) kinetic binding analysis. […] Affinity measurements were performed with Gator equipped with Anti-Penta-His capture (HIS1K) biosensor tips. The assay was performed at 30° C. in 1×PBS buffer (Gibco®, PBS pH7.2). Samples were agitated at 1000 rpm. Prior to analysis, sensors were humidified for 15 min. […] Sensor data was collected throughout the experiments, processed, and analyzed using the Gator data analysis software.
Briefly, purified anti-CD40 VHH was tested for its binding capacity with HIS1K sensor tips. Tips were loaded using 20 μg/ml of anti-CD40 VHH. Loading proceeded for 300 sec resulting in capture levels of between 1.8 and 2 nm. […] Association was initiated and monitored for 200 sec, after which tips were transferred to 1×PBS buffer without CD40 protein in order to monitor dissociation.
Turning to B8, the Kd is 0.0406 nM, the koff came out at 3.32e-05 s⁻¹ and the kon was 818000 M⁻¹ s⁻¹.

For another assay, the target named is T1, recombinant human OX40-Fc. As to the kind of experiment: ELISA, OX40-Fc coated, VHH at 1.6 nM.
Description: as §1
On to B1, for which the OD450 worked out at 1.02.

For B2, the OD450 turned out to be 1.4.

On to B3, for which the OD450 stood at 1.38.

On to B4, for which the OD450 is 0.065.

The target of a further assay is T1, recombinant human OX40-Fc. The experiment in a line: ELISA, OX40-Fc coated, VHH at 8 nM. Background: An ELISA detects its analyte on a solid surface through an enzyme-linked reagent.
Description: as §1
For the molecule B1, the OD450 was 1.34.

As to B2, the OD450 worked out at 1.52.

B3: the OD450 amounted to 1.54.

As for B4, the OD450 worked out at 0.103.

The target in the next assay is T1, recombinant human OX40-Fc. As to the kind of experiment: ELISA, OX40-Fc coated, VHH at 40 nM.
Description: as §1
As for B1, the OD450 was determined as 1.35.

B2: the OD450 was found to be 1.48.

B3: the OD450 is 1.61.

B4: the OD450 was found to be 0.242.

The next assay deals with T1, recombinant human OX40-Fc. As to the kind of experiment: ELISA, OX40-Fc coated, VHH at 0.0128 nM.
Description: as §1
Take B1: the OD450 came out at 0.155.

Regarding B2, the OD450 was found to be 0.169.

Consider B3, for which the OD450 came out at 0.126.

Turning to B4, the OD450 was found to be 0.057.

In another assay the target is T1, recombinant human OX40-Fc. As to the kind of experiment: ELISA, OX40-Fc coated, VHH at 0.32 nM.
Description: as §1
For B1, the OD450 is 0.334.

B2: the OD450 is 0.992.

Consider B3, for which the OD450 stood at 0.717.

With B4, the OD450 was 0.058.

Another assay has as its target T1, recombinant human OX40-Fc. As to the kind of experiment: ELISA, OX40-Fc coated, VHH at 1000 nM.
Description: as §1
Take B1: the OD450 is 1.39.

In the case of B2, the OD450 amounted to 1.61.

Take B3: the OD450 was determined as 1.69.

Take B4: the OD450 worked out at 1.09.

A further assay deals with T1, recombinant human OX40-Fc. The experiment in a line: ELISA, OX40-Fc coated, VHH at 200 nM.
Description: as §1
B1: the OD450 came out at 1.3.

As to B2, the OD450 came to 1.61.

Take B3: the OD450 is 1.62.

As for B4, the OD450 came to 0.543.
